# Numbering of substitutions follows the chain as printed. Names may count otherwise.
# B1: Pfu1: Pfu DNA polymerase with D141A/E143A/A486L (protein, UniProt P61875 1-775, looked up, variant D141A E143A A486L)
# DNA polymerase: MILDVDYITEEGKPVIRLFKKENGKFKIEHDRTFRPYIYALLRDDSKIEEVKKITGERHGKIVRIVDVEKVEKKFLGKPITVWKLYLEHPQDVPTIREKVREHPAVVDIFEYDIPFAKRYLIDKGLIPMEGEEELKILAFAIATLYHEGEEFGKGPIIMISYADENEAKVITWKNIDLPYVEVVSSEREMIKRFLRIIREKDPDIIVTYNGDSFDFPYLAKRAEKLGIKLTIGRDGSEPKMQRIGDMTAVEVKGRIHFDLYHVITRTINLPTYTLEAVYEAIFGKPKEKVYADEIAKAWESGENLERVAKYSMEDAKATYELGKEFLPMEIQLSRLVGQPLWDVSRSSTGNLVEWFLLRKAYERNEVAPNKPSEEEYQRRLRESYTGGFVKEPEKGLWENIVYLDFRALYPSIIITHNVSPDTLNLEGCKNYDIAPQVGHKFCKDIPGFIPSLLGHLLEERQKIKTKMKETQDPIEKILLDYRQKLIKLLANSFYGYYGYAKARWYCKECAESVTAWGRKYIELVWKELEEKFGFKVLYIDTDGLYATIPGGESEEIKKKALEFVKYINSKLPGLLELEYEGFYKRGFFVTKKRYAVIDEEGKVITRGLEIVRRDWSEIAKETQARVLETILKHGDVEEAVRIVKEVIQKLANYEIPPEKLAIYEQITRPLHEYKAIGPHVAVAKKLAAKGVKIKPGMVIGYIVLRGDGPISNRAILAEEYDPKKHKYDAEYYIENQVLPAVLRILEGFGYRKEDLRYQKTRQVGLTSWLNIKKS
# B2: Therminator: DNA polymerase of SEQ ID NO:12, derivative of Thermococcus sp. 9° N-7 DNA polymerase (D141A/E143A/A485L), New England Biolabs (protein)
# chain: MILDTDYITENGKPVIRVFKKENGEFKIEYDRTFEPYFYALLKDDSAIEDVKKVTAKRHGTVVKVKRAEKVQKKFLGRPIEVWKLYFNHPQDVPAIRDRIRAHPAVVDIYEYDIPFAKRYLIDKGLIPMEGDEELTMLAFAIATLYHEGEEFGTGPILMISYADGSEARVITWKKIDLPYVDVVSTEKEMIKRFLRVVREKDPDVLITYNGDNFDFAYLKKRCEELGIKFTLGRDGSEPKIQRMGDRFAVEVKGRIHFDLYPVIRRTINLPTYTLEAVYEAVFGKPKEKVYAEEIAQAWESGEGLERVARYSMEDAKVTYELGREFFPMEAQLSRLIGQSLWDVSRSSTGNLVEWFLLRKAYKRNELAPNKPDERELARRRGGYAGGYVKEPERGLWDNIVYLDFRSLYPSIIITHNVSPDTLNREGCKEYDVAPEVGHKFCKDFPGFIPSLLGDLLEERQKIKRKMKATVDPLEKKLLDYRQRLIKILANSFYGYYGYAKARWYCKECAESVTAWGREYIEMVIRELEEKFGFKVLYADTDGLHATIPGADAETVKKKAKEFLKYINPKLPGLLELEYEGFYVRGFFVTKKKYAVIDEEGKITTRGLEIVRRDWSEIAKETQARVLEAILKHGDVEEAVRIVKEVTEKLSKYEVPPEKLVIHEQITRDLRDYKATGPHVAVAKRLAARGVKIRPGTVISYIVLKGSGRIGDRAIPADEFDPTKHRYDAEYYIENQVLPAVERILKAFGYRKEDLRYQKTKQVGLGAWLKVKGKK
# B3: R743A: Therminator with mutation R743A (9° N DNA pol numbering) (protein, UniProt Q56366 1-775, looked up, variant D141A E143A A485L R743A)
# DNA polymerase: B2 chain with R743A
# B4: T144G: Therminator with mutation T144G (9° N DNA pol numbering) (protein, UniProt Q56366 1-775, looked up, variant D141A E143A A485L T144G)
# DNA polymerase: B2 chain with T144G
# modifications: Therminator
# B5: T514S: Therminator with mutation T514S (9° N DNA pol numbering) (protein, UniProt Q56366 1-775, looked up, variant D141A E143A A485L T514S)
# DNA polymerase: B2 chain with T514S
# modifications: Therminator
# B6: G153D: Therminator with mutation G153D (9° N DNA pol numbering) (protein, UniProt Q56366 1-775, looked up, variant D141A E143A A485L G153D)
# DNA polymerase: B2 chain with G153D
# modifications: Therminator
# B7: K477M: Therminator with mutation K477M (9° N DNA pol numbering) (protein, UniProt Q56366 1-775, looked up, variant D141A E143A A485L K477M)
# DNA polymerase: B2 chain with K477M
# modifications: Therminator
# B8: I521L: Therminator with mutation I521L (9° N DNA pol numbering) (protein, UniProt Q56366 1-775, looked up, variant D141A E143A A485L I521L)
# DNA polymerase: B2 chain with I521L
# modifications: Therminator
# B9: Pfu10-N12: Pfu10 variant with 15 conservative mutations plus M129A, SEQ ID NO:3 (protein)
# chain: MILDVDYITEEGKPIIRLFKKENGKFRIEHDRTFRPYIYALLRDDSKIEEIKKITGERHGKIVRIVDVEKVEKKFLGKPVTVWRLYLEHPQDVPTIREKVKEHPAVIDIFEYDIPFAKRYLIDKGLVPAEGEEELKILAFAIATLYHEGEEFGKGPIIMISYADENEAKVITWKNIDLPYVEVVSSEREMIKRFVKIIKEKDPDIIVTYNGDSFDFPYLAKRAEKLGVKLTIGRDGSEPKMQRIGDMTAVEVKGRIHFDLYHVITRTINLPTYTLEAVYEAIFGKPKEKVYADEIAKAWESGENLERVAKYSMEDAKATYELGKEFLPMEIQLSRLVGQPLWDVSRSSTGNLVEWFLLRKAYERNEVAPNKPSEEEYQRRLRESYTGGFVKEPEKGLWENIVYLDFRALYPSIIITHNVSPDTLNLEGCKNYDIAPQVGHKFCKDIPGFIPSLLGHLLEERQKIKTKMKETQDPIEWILLDYRQKLIKLLANSFYGYYGYARARWYCRECAESVTAWGRKYIELTWKELEEKFGFKVLYIDTDGLHATIPGGESEEIKKKALEFVKYINSKLPGLLELEYEGFYKRGFFVTKKRYAVIDEEGKVITRGLEIVRRDWSEIAKETQARVLETILKHGDVEEAVRIVKEVIQKLANYEIPPEKLAIYEQITRPLHEYKAIGPHVAVAKKLAAKGVKIKPGMVIGYIVLRGDGPISNRAILAEEYDPKKHKYDAEYYIENQVLPAVLRILEGFGYRKEDLRYQKTRQVGLTSWLNIKKS
# modifications: Mutant of Pyrococcus furiosus Polymerase
# How the values were obtained:
# Type in all cases: biochemical
# [1] = system: Lightning Terminators; assay: Sequencing-by-synthesis with Lightning Terminators (87 cycles); parameters: ARL (87 cycles) / Lead + Lag / Leading / Lagging: unit not given here
# Protocol: (§1) This section generally describes how the present mutant polymerases were used for sequencing-by-synthesis, and how their performance in sequencing was measured. Sequencing was performed on a breadboard instrument, essentially as described in Hertzog D, et al., “A high-performance, low-cost approach to next-generation sequencing”, BioOptics World. 2011 Issue November/December 2011.
# In this example, mutations were introduced into the DNA polymerase of SEQ ID NO: 12 (Therminator) in an attempt to improve its capability in sequencing with 3′-OH unblocked terminators. Such mutations to Thermococcus sp. 9° N DNA polymerase are disclosed in U.S. Pat. Nos. 9,273,352; 9,677,059; 9,765,309; U.S. Pat. App. Publication No. 20160032377. The following table summarizes sequencing metrics with Lightning Terminators.
# As used in this example and those that follow, “Lead+Lag” refers to dephasing errors in Sequencing by Synthesis technology caused by either reading the next base signal (Lead) or reading the previous base signal (Lag) relative to current base signals. Such errors may arise because of imperfect incoporation of reversible terminators by the polymerase.
# In this example, mutant polymerases were created by introducing certain mutations (D141A/E143A/A485L) which are present in Therminator. The three mutations were introduced at the equivalent positions in JDF3 (Thermococcus sp. JDF3) and Pfu (Pyrococcus furisosus) DNA polymerases. The new mutant polymerases were then evaluated for their performance in sequencing with Lightning Terminators, as described above.
# [2] = system: Lightning Terminators; assay: Plate-based assay, incorporation of Lightning Terminators by control extracts; conditions: control extracts, FIG. 6, FIGS. 7A-7B
# Protocol: In this example, additional mutant polymerases were derived from Pfu polymerase. To generate the mutants, eighty-seven codons in the Pfu pol B gene were saturated using the QuikChange Lightning Mutagenesis kit and oligonucleotides containing “NDT” codons to create R, N, D, C, G, H, I, L, F, S, Y, and V substitutions with equal frequency. In some cases, mutants missing from NDT libraries were prepared in a separate QuikChange reaction with an equimolar mixture of mutagenic oligos encoding the remaining mutations (A, T, K, Q, E, P, […], W). Thirty-two clones were randomly selected from each QuikChange library (with the exception of T267, Y403, Y410, I475, G499 and K675 libraries which generated fewer transformants). Bacterial lysates were prepared and screened for incorporation of LTA and LTC using a plate-based assay with immobilized primer-templates. A limited number of mutants were also screened for utilization of LTG and LTU (similar trends; data not shown). After washing and UV cleavage (to minimize dye quenching effects), plates were read and fluorescent signals compared to Pfu controls. The following table identifies four mutant Pfu polymerases that served as controls, which were given the arbitrary names Pfu5, Pfu1, and Pfu2, along with Pfu10 (which is discussed above).
# Selected lysates, based on screening results, were submitted for sequencing, and an amino acid identification was made based on the selections. […] As shown in Example 3, K477W benefits sequencing by increasing the fraction of full-length reads.
# [3] = system: Human DNA library; assay: Sequencing with Lightning Terminators, Human DNA library (120 cycles)
# Protocol: as §1
# (§2) In this example, a variety of mutations were introduced into Pfu10 by multi-site mutagenesis or into Pfu A486L/Y546H by domain substitutions to explore an acceptable degree of reduced identity and identify other mutant Pfu polymerases containing L486, F494, H546, and W477. […] Pfu10 and Pfu10-N12 were evaluated for performance in sequencing with Lightning Terminators, as described above.
# [4] = system: E. coli DNA library; assay: Sequencing with Lightning Terminators, E. coli DNA library (120 cycles)
# Protocol: as §1, §2
# [5] = alternative polymerases (D141A/E143A), same protein concentrations (0.02 ug/uL in cycle 1 and 0.002 ug/uL in cycles 2-n)
# [6] = Therminator mutants, same unit concentrations (0.08 U/ul in cycle 1 and 0.008 U/ul in cycles 2-n)
Molecule,"% reads >85 bp [1, 6] [%]","ARL (87 cycles) [1, 6]","Lead + Lag [1, 6]",also measured
B1,,,,"% reads >85 [1, 5]: 9.9%; ARL (87 cycles) [1, 5]: 54.9; Lead + Lag [1, 5]: 2.1; Utilization of Lightning Terminators (in words) [2]: could utilize Lightning Terminators"
B2,35.4,72.3,1.6,"% reads >85 bp ([1]; Example 3): 49.6%; FracQ30 ([1]; Example 3): 0.58; Lagging ([1]; Example 3): 0.61; Leading ([1]; Example 3): 0.70; ARL (87 cycles) ([1]; Example 3, Therminator 110 runs, Pfu10 12 runs): 76.0; % reads >85 [1, 5]: 49.6%; ARL (87 cycles) [1, 5]: 76.0; Lead + Lag [1, 5]: 1.3"
B3,8.6,55.0,2.4,
B4,31.8,70.5,1.4,
B5,38.3,72.0,1.1,
B6,21.5,66.7,1.8,
B7,27.7,68.8,1.6,
B8,2.8,53.9,2.8,
B9,,,,"% reads >85 ([3]; Human DNA library): 93.3%; ARL (120 cycles) ([3]; Human DNA library): 111.6; FracQ30 ([3]; Human DNA library): 0.68; Lead + Lag ([3]; Human DNA library): 1.0; Sequencing performance with Lightning Terminators (in words) ([3]; Human and E. coli libraries, compared with Pfu10): performs comparably if not slightly better than Pfu10; % reads >85 [4]: 82.6%; ARL (120 cycles) [4]: 93.8; FracQ30 [4]: 0.65; Lead + Lag [4]: 0.9"

# Source: patent publication US12006519B2, “Polymerase mutants and use with 3′-OH unblocked reversible terminators” (Agilent Technologies, Inc., priority 2021, dated 2024)
